Measurements as given in the supplement of paper PMC9112550, “Optimization of the antimicrobial peptide Bac7 by deep mutational scanning” (BMC Biology, 2022).

test system: Escherichia coli TOP10; assay: shrunken log2 fold change of peptide-encoding DNA abundance (4.5 h post-induction vs induction); higher = less antimicrobial activity (less host growth inhibition); conditions: time post-induction: 4.5 h; library: site-saturation at positions 5, 18, 19, 20
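Further: peptides expressed intracellularly from a pBAD plasmid library in pooled LB shake-flask culture, induced with 0.3% L-arabinose, DNA abundance read by NGS, three biological replicates, DESeq2 with apeglm shrinkage.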

Point of comparison: RRIRERPPRLPRPRPRPHGEPRP, “shrunken log2 fold change” value -0.0812. Against it:
- RRIRTRPPRLPRPRPRPREQPRP — higher, 0.198
- RRIRERPPRLPRPRPRPSWNPRP — lower, -0.701
- RRIRKRPPRLPRPRPRPPMMPRP — higher, 0.587
- RRIRGRPPRLPRPRPRPHLTPRP — higher, 0.357
- RRIRPRPPRLPRPRPRPYCCPRP — lower, -0.384
- RRIRVRPPRLPRPRPRPQVHPRP — within 0.2 log units, -0.14
- RRIRYRPPRLPRPRPRPAVRPRP — within 0.2 log units, -0.0403
- RRIRMRPPRLPRPRPRPFENPRP — within 0.2 log units, 0.00631
- RRIRSRPPRLPRPRPRPSHKPRP — lower, -0.658
- RRIRIRPPRLPRPRPRPVHRPRP — within 0.2 log units, -0.194
- RRIRNRPPRLPRPRPRPYYIPRP — within 0.2 log units, -0.131
- RRIRPRPPRLPRPRPRPKRGPRP — higher, 0.484
- RRIRDRPPRLPRPRPRPVMPPRP — within 0.2 log units, -0.189
- RRIRYRPPRLPRPRPRPCLIPRP — within 0.2 log units, -0.00819
- RRIRQRPPRLPRPRPRPPSVPRP — within 0.2 log units, 0.0958
- RRIRIRPPRLPRPRPRPLNSPRP — lower, -0.652
- RRIRHRPPRLPRPRPRPFNGPRP — within 0.2 log units, -0.118
- RRIRQRPPRLPRPRPRPRHNPRP — within 0.2 log units, -0.0654
- RRIRHRPPRLPRPRPRPIISPRP — within 0.2 log units, -0.247
- RRIRGRPPRLPRPRPRPWDTPRP — higher, 0.194
- RRIRLRPPRLPRPRPRPGQLPRP — within 0.2 log units, -0.0554
- RRIRVRPPRLPRPRPRPHWTPRP — within 0.2 log units, -0.045
- RRIRLRPPRLPRPRPRPWLQPRP — within 0.2 log units, 0.0325
- RRIRYRPPRLPRPRPRPQSKPRP — lower, -0.607
- RRIRRRPPRLPRPRPRPVCNPRP — higher, 0.181
- RRIRNRPPRLPRPRPRPPLAPRP — higher, 0.697
- RRIRQRPPRLPRPRPRPRKQPRP — higher, 0.505
- RRIRVRPPRLPRPRPRPGWRPRP — higher, 0.49
- RRIRQRPPRLPRPRPRPGQGPRP — within 0.2 log units, -0.000829
- RRIRQRPPRLPRPRPRPYANPRP — within 0.2 log units, -0.264
- RRIRHRPPRLPRPRPRPSVSPRP — within 0.2 log units, -0.0167
- RRIRQRPPRLPRPRPRPAGRPRP — higher, 0.978
- RRIRRRPPRLPRPRPRPTLWPRP — higher, 0.563
- RRIRKRPPRLPRPRPRPGNWPRP — higher, 0.701
- RRIRLRPPRLPRPRPRPAPHPRP — higher, 0.514
- RRIRMRPPRLPRPRPRPLKKPRP — higher, 0.349
- RRIRIRPPRLPRPRPRPNDHPRP — lower, -0.569
- RRIRCRPPRLPRPRPRPTMTPRP — within 0.2 log units, 0.106
- RRIRHRPPRLPRPRPRPTMMPRP — lower, -0.503
- RRIRGRPPRLPRPRPRPGDIPRP — higher, 0.143
- RRIRHRPPRLPRPRPRPFGGPRP — within 0.2 log units, -0.0398
- RRIRPRPPRLPRPRPRPSKPPRP — within 0.2 log units, 0.0728
- RRIRHRPPRLPRPRPRPTWPPRP — higher, 0.25
- RRIRHRPPRLPRPRPRPRNCPRP — within 0.2 log units, -0.112
- RRIRTRPPRLPRPRPRPGGAPRP — higher, 0.38
- RRIRTRPPRLPRPRPRPKSSPRP — within 0.2 log units, -0.0371
- RRIRARPPRLPRPRPRPGWAPRP — higher, 0.72
- RRIRMRPPRLPRPRPRPFSHPRP — within 0.2 log units, 0.0882
- RRIRERPPRLPRPRPRPHDVPRP — within 0.2 log units, 0.00785
- RRIRNRPPRLPRPRPRPTSGPRP — higher, 0.211
- RRIRQRPPRLPRPRPRPNCYPRP — lower, -0.284
- RRIRTRPPRLPRPRPRPDYRPRP — within 0.2 log units, 0.0112
- RRIRNRPPRLPRPRPRPPEFPRP — within 0.2 log units, -0.144
- RRIRWRPPRLPRPRPRPVYAPRP — higher, 0.31
- RRIRKRPPRLPRPRPRPGHEPRP — higher, 0.127
- RRIRERPPRLPRPRPRPYGCPRP — within 0.2 log units, -0.105
- RRIRTRPPRLPRPRPRPARCPRP — higher, 0.324
- RRIRRRPPRLPRPRPRPECRPRP — higher, 0.272
- RRIRIRPPRLPRPRPRPCTFPRP — within 0.2 log units, -0.212
- RRIRWRPPRLPRPRPRPLSNPRP — within 0.2 log units, -0.252
- RRIRIRPPRLPRPRPRPMGIPRP — within 0.2 log units, 0.000142
- RRIRYRPPRLPRPRPRPRKTPRP — within 0.2 log units, -0.00513
- RRIRVRPPRLPRPRPRPPCSPRP — within 0.2 log units, -0.116
- RRIRFRPPRLPRPRPRPMMIPRP — within 0.2 log units, -0.018
- RRIRTRPPRLPRPRPRPPAMPRP — higher, 0.294
- RRIRSRPPRLPRPRPRPSLFPRP — within 0.2 log units, 0.0853
- RRIRPRPPRLPRPRPRPPFEPRP — higher, 0.596
- RRIRGRPPRLPRPRPRPCPLPRP — within 0.2 log units, -0.0214
- RRIRIRPPRLPRPRPRPTISPRP — lower, -0.385
- RRIRMRPPRLPRPRPRPSEWPRP — within 0.2 log units, 0.0913
- RRIRRRPPRLPRPRPRPPDEPRP — higher, 0.726
- RRIRWRPPRLPRPRPRPCGYPRP — higher, 0.14
- RRIRFRPPRLPRPRPRPVWKPRP — within 0.2 log units, -0.0844
- RRIRPRPPRLPRPRPRPTIRPRP — higher, 0.172
- RRIRTRPPRLPRPRPRPLRKPRP — higher, 0.258
- RRIRTRPPRLPRPRPRPLEFPRP — within 0.2 log units, -0.0903
- RRIRCRPPRLPRPRPRPIYIPRP — lower, -0.43
- RRIRPRPPRLPRPRPRPSTTPRP — lower, -0.326
- RRIRDRPPRLPRPRPRPQLPPRP — higher, 0.186
- RRIRLRPPRLPRPRPRPFNVPRP — lower, -0.485
- RRIRYRPPRLPRPRPRPGGGPRP — higher, 0.64
- RRIRKRPPRLPRPRPRPYTVPRP — within 0.2 log units, -0.0362
- RRIRDRPPRLPRPRPRPFIPPRP — lower, -0.334
- RRIRVRPPRLPRPRPRPIPDPRP — within 0.2 log units, -0.0692
- RRIRWRPPRLPRPRPRPCAQPRP — higher, 0.162
- RRIRNRPPRLPRPRPRPIDWPRP — within 0.2 log units, 0.0533
- RRIRQRPPRLPRPRPRPHHMPRP — within 0.2 log units, -0.256
- RRIRFRPPRLPRPRPRPSQRPRP — higher, 0.384
- RRIRSRPPRLPRPRPRPQYQPRP — within 0.2 log units, -0.136
- RRIRGRPPRLPRPRPRPQDHPRP — higher, 0.254
- RRIRYRPPRLPRPRPRPIWCPRP — within 0.2 log units, -0.268
- RRIRFRPPRLPRPRPRPITKPRP — within 0.2 log units, -0.0304
- RRIRNRPPRLPRPRPRPGHNPRP — lower, -0.64
- RRIRVRPPRLPRPRPRPGDGPRP — higher, 0.532
- RRIRGRPPRLPRPRPRPKFHPRP — higher, 0.199
- RRIRKRPPRLPRPRPRPVQIPRP — higher, 0.13
- RRIRARPPRLPRPRPRPAAFPRP — higher, 0.787
- RRIRHRPPRLPRPRPRPPHGPRP — higher, 0.389
- RRIRARPPRLPRPRPRPHIAPRP — within 0.2 log units, -0.111
- RRIRARPPRLPRPRPRPKMLPRP — higher, 0.332
- RRIRHRPPRLPRPRPRPNPRPRP — within 0.2 log units, -0.0621
- RRIRCRPPRLPRPRPRPEFDPRP — within 0.2 log units, -0.0199
- RRIRWRPPRLPRPRPRPYFEPRP — lower, -0.483
- RRIRIRPPRLPRPRPRPKWPPRP — within 0.2 log units, 0.0341
- RRIRERPPRLPRPRPRPHNVPRP — lower, -0.42
- RRIRERPPRLPRPRPRPKVQPRP — within 0.2 log units, 0.105
- RRIRERPPRLPRPRPRPYMRPRP — within 0.2 log units, -0.188
- RRIRCRPPRLPRPRPRPRFTPRP — within 0.2 log units, 0.066
